# In paper PMC9508154:
# Molecular target: eIF5-CTD_(-CTT)-EE, phosphomimetic mutant S389E/S390E (human) (UniProt P55010)
# Test: NMR titration
# UniProt P55010, sequence (P55010 232-431 S389E/S390E): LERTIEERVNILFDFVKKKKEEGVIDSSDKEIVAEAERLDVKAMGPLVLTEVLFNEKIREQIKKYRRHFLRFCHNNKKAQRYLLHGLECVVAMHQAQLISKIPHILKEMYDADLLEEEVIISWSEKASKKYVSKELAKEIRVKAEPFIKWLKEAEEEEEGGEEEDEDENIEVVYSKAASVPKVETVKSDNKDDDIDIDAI
% CSP reduction at E17 of eIF1A-ΔC bound to m7 [%],% CSP reduction at G5 of eIF1A-ΔC bound to m7 [%],% CSP reduction at L25 of eIF1A-ΔC bound to m7 [%],% CSP reduction at V26 of eIF1A-ΔC bound to m7 [%],% CSP reduction at W69 of eIF1A-ΔC bound to m7 [%],% CSP reduction at Y83 of eIF1A-ΔC bound to m7 [%],Substance
83,95,62,38,63,,N-terminal tail of the β subunit of eIF2 (eIF2β-NTT) (domain or fragment)
32,40,20,24,22,18,eIF1A N-terminal tail (eIF1A-NTT) (domain or fragment)
